{"source": "paper PMC11645250", "molecules": {"B1": {"name": "28 bp dsRNA (dsRNA)", "RNA 1": "AGAACCUGUUGAACAAAAGCCGAAUAAU", "RNA 2": "AUUAUUCGGCUUUUGUUCAACAGGUUCU"}}, "key": {"[1]": {"target": "IBDV VP3 D1–D2–D3 construct (residues 1–221) (infectious bursal disease virus (IBDV))", "experiment": "SEC-MALS"}, "[2]": {"target": "IBDV VP3 D1–D2–D3 construct (residues 1–221) (infectious bursal disease virus (IBDV))", "experiment": "cross-linking"}, "[3]": {"target": "IBDV VP3 D1–D2–D3 construct (residues 1–221) (infectious bursal disease virus (IBDV))", "experiment": "cross-linking", "remark": "listed apart in the source"}, "[4]": {"target": "IBDV VP3 D1–D2–D3 construct (residues 1–221) (infectious bursal disease virus (IBDV))", "experiment": "SAXS"}, "[5]": {"target": "IBDV VP3 N-terminal construct (residues 1–81, D1 domain) (infectious bursal disease virus (IBDV))", "experiment": "SEC-MALS"}, "[6]": {"target": "IBDV VP3 N-terminal construct (residues 1–81, D1 domain) (infectious bursal disease virus (IBDV))", "experiment": "cross-linking"}, "[7]": {"target": "IBDV VP3 N-terminal construct (residues 1–81, D1 domain) (infectious bursal disease virus (IBDV))", "experiment": "SAXS"}, "[8]": {"target": "IBDV VP3 central domains construct (residues 89–221, D2–D3) (infectious bursal disease virus (IBDV))", "experiment": "cross-linking"}, "VP3 1-81 (D1)": {"target": "T1, VP3 1-81 (D1) (Infectious bursal disease virus (Soroa …, UniProt Q9WI42 756-836))", "T1 sequence": "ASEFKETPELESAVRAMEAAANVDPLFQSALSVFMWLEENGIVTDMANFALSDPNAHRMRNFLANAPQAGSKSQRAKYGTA", "experiment": "EMSA"}}, "note": "Read-outs that look alike come from different tables or passages of the source."}
{"molecule": "IBDV VP3 D1–D2–D3 construct (residues 1–221) (domain or fragment)", "values": [{"measurement": "% of total sample in the predominant (dimer) peak", "setting": "[1]", "value": 98.8, "unit": "%"}, {"measurement": "stoichiometry N", "setting": "[1]", "value": 2}, {"measurement": "% of protein in dimers and higher MW species after BS3 cross-linking", "setting": "[2]", "value": 93.2, "unit": "%"}, {"measurement": "% of protein in dimers and higher MW species after BS3 cross-linking", "setting": "[3]", "value": 93.3, "unit": "%"}, {"measurement": "stoichiometry N", "setting": "[4]", "value": 2}]}
{"molecule": "IBDV VP3 N-terminal construct (residues 1–81, D1 domain) (domain or fragment)", "values": [{"measurement": "stoichiometry N", "setting": "[5]", "value": 2}, {"measurement": "% of the band in the dimeric form after BS3 cross-linking", "setting": "[6]", "value": 96.9, "unit": "%"}, {"measurement": "stoichiometry N", "setting": "[7]", "value": 2}]}
{"molecule": "IBDV VP3 central domains construct (residues 89–221, D2–D3) (domain or fragment)", "values": [{"measurement": "% dimerization/oligomerization after BS3 cross-linking", "setting": "[8]", "value": 43.5, "unit": "%"}]}
{"molecule": "B1", "values": [{"measurement": "binding result", "setting": "VP3 1-81 (D1)", "value": "no binding"}]}
